One substance from patent publication US20160272689A1 can be followed below.

The assay deals with Fc-tagged extracellular domain of mouse RPTPσ (wild type) (mouse) (UniProt B0V2N1). Kind of assay: ELISA: Fc-tagged RPTPσ (2 µg/ml) on protein G plates; biotinylated aggrecan 5 µg/ml preincubated with protamine 0-5 µg/ml; streptavidin-HRP, A450. (In an ELISA, binding on a coated surface is turned into a signal by an enzyme label.)
Chain of Fc-tagged extracellular domain of mouse RPTPσ (wild type) (mouse) (B0V2N1 30-1257): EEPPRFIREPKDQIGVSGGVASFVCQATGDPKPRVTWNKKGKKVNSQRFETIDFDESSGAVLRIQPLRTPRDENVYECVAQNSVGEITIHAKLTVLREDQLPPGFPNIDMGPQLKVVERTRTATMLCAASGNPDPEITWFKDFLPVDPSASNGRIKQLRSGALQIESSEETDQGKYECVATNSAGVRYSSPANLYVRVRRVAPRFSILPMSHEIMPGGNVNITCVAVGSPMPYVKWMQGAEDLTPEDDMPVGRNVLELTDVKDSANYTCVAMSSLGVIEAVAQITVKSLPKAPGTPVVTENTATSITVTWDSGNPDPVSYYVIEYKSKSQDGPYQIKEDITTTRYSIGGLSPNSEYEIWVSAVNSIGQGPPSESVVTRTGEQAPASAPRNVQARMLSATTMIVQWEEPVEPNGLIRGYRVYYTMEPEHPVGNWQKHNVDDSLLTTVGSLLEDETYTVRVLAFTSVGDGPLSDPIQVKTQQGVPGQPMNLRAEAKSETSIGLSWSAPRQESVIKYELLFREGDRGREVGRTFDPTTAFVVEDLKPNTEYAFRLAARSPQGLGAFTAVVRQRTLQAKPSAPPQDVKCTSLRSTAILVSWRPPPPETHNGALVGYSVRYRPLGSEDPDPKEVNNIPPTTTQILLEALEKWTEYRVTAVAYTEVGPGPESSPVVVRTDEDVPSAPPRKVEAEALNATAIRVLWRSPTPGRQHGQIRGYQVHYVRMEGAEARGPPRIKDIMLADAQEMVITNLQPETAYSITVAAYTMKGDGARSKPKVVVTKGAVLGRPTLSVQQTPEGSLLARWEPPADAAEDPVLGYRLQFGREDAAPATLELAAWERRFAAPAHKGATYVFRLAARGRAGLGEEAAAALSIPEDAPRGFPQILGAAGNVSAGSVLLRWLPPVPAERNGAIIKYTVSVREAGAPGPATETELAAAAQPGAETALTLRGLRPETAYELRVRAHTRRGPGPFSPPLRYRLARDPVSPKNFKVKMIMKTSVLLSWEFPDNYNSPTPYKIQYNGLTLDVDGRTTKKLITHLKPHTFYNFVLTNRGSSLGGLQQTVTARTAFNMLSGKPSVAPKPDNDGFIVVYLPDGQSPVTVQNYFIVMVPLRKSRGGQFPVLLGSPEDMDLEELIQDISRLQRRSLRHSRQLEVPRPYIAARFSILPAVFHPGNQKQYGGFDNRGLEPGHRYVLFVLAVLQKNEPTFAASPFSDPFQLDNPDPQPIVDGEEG

Chain of biotinylated bovine aggrecan, P13608 17-2364 (ligand; biotinylated (sites not stated); natural chondroitin sulphate side chains of the proteoglycan) (P13608 17-2364 limits assumed): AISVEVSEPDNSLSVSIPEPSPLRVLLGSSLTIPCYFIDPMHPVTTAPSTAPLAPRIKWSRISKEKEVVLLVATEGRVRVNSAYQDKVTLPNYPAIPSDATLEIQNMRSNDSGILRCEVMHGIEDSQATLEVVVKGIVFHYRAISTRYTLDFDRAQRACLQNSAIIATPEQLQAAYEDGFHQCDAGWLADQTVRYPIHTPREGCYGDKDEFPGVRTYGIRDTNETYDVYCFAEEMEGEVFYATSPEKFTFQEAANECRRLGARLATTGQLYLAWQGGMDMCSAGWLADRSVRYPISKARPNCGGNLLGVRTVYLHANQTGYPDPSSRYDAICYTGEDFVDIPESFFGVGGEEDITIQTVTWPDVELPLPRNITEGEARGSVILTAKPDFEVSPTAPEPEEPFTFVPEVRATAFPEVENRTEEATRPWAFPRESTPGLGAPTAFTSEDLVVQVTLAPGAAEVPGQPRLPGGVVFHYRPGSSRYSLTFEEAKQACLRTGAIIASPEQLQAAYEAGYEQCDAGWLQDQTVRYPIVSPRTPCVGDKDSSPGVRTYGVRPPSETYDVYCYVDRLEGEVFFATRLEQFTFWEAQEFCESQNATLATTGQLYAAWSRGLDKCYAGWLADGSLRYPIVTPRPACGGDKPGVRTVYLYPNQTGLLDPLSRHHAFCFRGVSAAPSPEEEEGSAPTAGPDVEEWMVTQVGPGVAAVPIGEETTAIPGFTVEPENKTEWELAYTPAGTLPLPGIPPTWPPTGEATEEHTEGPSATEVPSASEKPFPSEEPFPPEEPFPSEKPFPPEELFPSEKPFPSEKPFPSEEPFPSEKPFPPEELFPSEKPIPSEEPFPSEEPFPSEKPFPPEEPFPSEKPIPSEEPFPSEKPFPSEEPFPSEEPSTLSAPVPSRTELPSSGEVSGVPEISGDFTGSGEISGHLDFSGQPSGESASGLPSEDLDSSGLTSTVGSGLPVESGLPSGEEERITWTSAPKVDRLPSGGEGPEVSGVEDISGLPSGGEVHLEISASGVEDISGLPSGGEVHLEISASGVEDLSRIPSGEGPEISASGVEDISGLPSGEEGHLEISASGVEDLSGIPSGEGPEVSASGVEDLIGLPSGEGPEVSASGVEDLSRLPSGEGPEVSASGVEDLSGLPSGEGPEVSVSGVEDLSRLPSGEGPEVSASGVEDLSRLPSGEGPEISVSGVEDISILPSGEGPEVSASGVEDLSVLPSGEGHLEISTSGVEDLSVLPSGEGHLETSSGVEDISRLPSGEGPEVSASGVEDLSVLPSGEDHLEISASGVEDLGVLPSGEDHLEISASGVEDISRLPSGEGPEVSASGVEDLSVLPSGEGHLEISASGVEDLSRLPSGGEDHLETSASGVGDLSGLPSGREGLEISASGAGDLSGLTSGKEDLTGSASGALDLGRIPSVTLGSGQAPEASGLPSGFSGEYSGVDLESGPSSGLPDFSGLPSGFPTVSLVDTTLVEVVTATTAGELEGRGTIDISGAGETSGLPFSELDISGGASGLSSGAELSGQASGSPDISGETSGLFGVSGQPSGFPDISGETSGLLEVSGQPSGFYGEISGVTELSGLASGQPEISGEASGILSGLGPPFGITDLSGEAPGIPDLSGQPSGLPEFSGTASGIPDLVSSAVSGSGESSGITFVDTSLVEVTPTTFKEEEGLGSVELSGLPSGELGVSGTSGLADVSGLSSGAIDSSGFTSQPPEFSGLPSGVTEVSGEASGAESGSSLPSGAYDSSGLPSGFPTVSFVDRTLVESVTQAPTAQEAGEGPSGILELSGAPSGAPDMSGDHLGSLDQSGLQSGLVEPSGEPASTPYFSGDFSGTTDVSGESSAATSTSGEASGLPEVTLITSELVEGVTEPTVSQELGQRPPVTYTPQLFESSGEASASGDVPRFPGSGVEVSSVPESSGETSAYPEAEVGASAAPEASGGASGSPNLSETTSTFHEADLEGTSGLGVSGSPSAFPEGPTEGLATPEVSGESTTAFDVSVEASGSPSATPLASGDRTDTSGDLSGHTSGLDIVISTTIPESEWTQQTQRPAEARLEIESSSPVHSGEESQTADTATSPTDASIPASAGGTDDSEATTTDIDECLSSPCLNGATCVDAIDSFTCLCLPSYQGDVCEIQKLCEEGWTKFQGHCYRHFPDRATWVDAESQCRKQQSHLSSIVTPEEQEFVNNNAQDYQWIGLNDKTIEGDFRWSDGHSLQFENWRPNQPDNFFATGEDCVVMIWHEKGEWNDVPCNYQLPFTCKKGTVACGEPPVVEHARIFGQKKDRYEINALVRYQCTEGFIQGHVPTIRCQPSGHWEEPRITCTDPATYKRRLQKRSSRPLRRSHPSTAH

Consider “biotinylated bovine aggrecan, P13608 17-2364 (ligand; biotinylated (sites not stated); natural chondroitin sulphate side chains of the proteoglycan)”, for which the fold increase of binding in the presence of protamine was 2 fold.
